Key:
[1] = molecular target: T1, recombinant EGFR extracellular domain (EGFR-Fc) (Homo sapiens, UniProt P00533); assay: EGFR-Fc affinity by surface plasmon resonance (Proteon); format: binding; settings: SPR, 1:1 Langmuir fit; read-out: EGFR-Fc Affinity
T1 construct: purchased R&D Systems
Protocol: Select EGFR-binding FN3 domains were screened to identify those with slow off-rates (koff) in binding to EGFR-Fc on a ProteOn XPR-36 instrument (Bio-Rad) to facilitate selection of high affinity binders. Goat anti-human Fc IgG (R&D systems), at a concentration of 5 μg/mL, was directly immobilized via amine coupling (at pH 5.0) on all 6 ligand channels in horizontal orientation on the chip with a flow rate of 30 μL/min in PBS containing 0.005% Tween-20. The immobilization densities averaged about 1500 Response Units (RU) with less than 5% variation among different channels. EGFR-Fc was captured on the anti-human Fc IgG surface to a density around 600 RU in vertical ligand orientation. All tested FN3 domains were normalized to a concentration of 1 μM and tested for their binding in horizontal orientation. […] The dissociation phase was monitored for 10 minutes at a flow rate of 100 μL/min. […]
Binding affinity of selected EGFR-binding FN3 domains to recombinant EGFR extracellular domain was further characterized by surface Plasmon resonance methods using a Proteon Instrument (BioRad). […] The dissociation phase for all concentrations of each EGFR-binding FN3 domain was monitored at a flow rate of 100 μL/min for 30 minutes (for those with koff ˜10^−2 s^−1 from off-rate screening), or 1 hour (for those with koff ˜10^−3 s^−1 or slower). […]

[2] = tested on: NCI-H292 cells; assay: NCI-H292 growth assay; format: cell-based, human; settings: 120 hours, CellTiter-Glo
Protocol: (§1) Inhibition of EGFR-dependent cell growth was assessed by measuring viability of the EGFR over-expressing human tumor cell lines, NCI-H292 and NCI-H322 (American Type Culture Collection, cat. #CRL-1848 & #CRL-5806, respectively), following
(§2) exposure to EGFR-binding FN3 domains. […] Cells were treated by addition of 5 μL/well of phosphate-buffered saline (PBS) containing a concentration range of EGFR-binding FN3 domains. Controls were treated with 5 μL/well of PBS only or 25 mM ethylenediaminetetraacetic acid in PBS. […] Viable cells were detected by addition of 75 μL/well of CellTiter-Glo® reagent (Promega), followed by mixing on a plate shaker for 2 minutes, and incubation in the dark at room temperature for a further 10 minutes. Plates were read on a SpectraMax M5 plate reader (Molecular Devices) set to luminescence mode, with a read time of 0.5 seconds/well against a blank of medium only. Data were plotted as a percentage of PBS-treated cell growth against the logarithm of FN3 domain molar concentration.

[3] = molecular target: EGF binding to EGFR on A431 cells (Homo sapiens, UniProt P00533); assay: A431 cell EGF competition assay; settings: 30 ng/mL biotinylated EGF
Protocol: To better characterize the mechanism of EGFR binding, the ability of various identified FN3 domain clones to bind EGFR in an EGF-competitive manner was measured using A431 cells and run in parallel with the A431 binding assay screen. […] Biotinylated EGF (Invitrogen, cat. #E-3477) was added to each well for a final concentration of 30 ng/mL and incubated for 10 minutes at room temperature.
Bacterial lysates containing the FN3 domains were screened in the EGF competition assay described above.
Biotinylated EGF (Invitrogen, Cat #: E-3477) was added to each well to give a final concentration of 30 ng/mL and incubated for 10 minutes at room temperature.

[4] = molecular target: EGFR on A431 cells (Homo sapiens, UniProt P00533); assay: A431 cell binding assay; settings: purified FN3 domains
[5] = tested on: NCI-H322 cells; assay: NCI-H322 growth assay; format: cell-based, human; settings: 120 hours, CellTiter-Glo
Protocol: as §1, §2

[6] = molecular target: EGFR (Homo sapiens, UniProt P00533); assay: Phospho-EGFR assay: inhibition of EGF-stimulated EGFR phosphorylation (Tyr1173) in A431 cells; format: cell-based; settings: 50 ng/mL EGF

B1: P54AR4-47: EGFR-binding FN3 domain, SEQ ID NO: 20 (protein)
chain: LPAPKNLVVSEVTEDSLRLSWGYNGDHFDSFLIQYQESEKVGEAINLTVPGSERSYDLTGLKPGTEYTVSIYGVHNVYKDTNMRGLPLSAEFTT
modifications: EGFR binding FN3 domain
Molecule B1 has a Kd [1] of 2.51 nM, an IC50 [2] of 44 nM and an IC50 [3] of 7.1 nM. The EC50 [4] was 8.6 nM, the IC50 [5] was 39 nM and the IC50 [6] was 295 nM.

Reference: patent US12304939B2, “EGFR and C-met fibronectin type III domain binding molecules” (Janssen Biotech, Inc., priority 2012, dated 2025)
